In general, Kd refers to the free concentration of one partner at which half of the binding sites on the other are occupied at equilibrium, for simple one-to-one binding. Low readings indicate tighter binding, high ones weaker binding.

What all share (assay): BLI
In test [1] the target is AN13A(479-594) (human).
For test [2], the target named is UIMC1(76-128) (human) (UniProt Q96RL1).
Test [3] has as its target USP37(700-851) (human) (UniProt Q86T82).
UniProt Q86T82, sequence (Q86T82 700-851): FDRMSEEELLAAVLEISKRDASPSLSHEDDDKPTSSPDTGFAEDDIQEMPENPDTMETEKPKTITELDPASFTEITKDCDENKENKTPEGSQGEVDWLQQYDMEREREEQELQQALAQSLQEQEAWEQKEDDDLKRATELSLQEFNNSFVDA

UniProt Q96RL1, sequence (Q96RL1 76-128): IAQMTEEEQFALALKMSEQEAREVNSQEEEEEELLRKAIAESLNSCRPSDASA

For “K11-diUb (from UniProt P0CG47 1-76) (complex)”, the Kd in test [1] amounted to 1280 nM; in test [2], 2920 nM; in test [3], 8890 nM.
In test [1], “K11/K48-triUb-(1,0) (triUb-NC(1,0)) (from UniProt P0CG47 1-75; P0CG47 1-76; P0CG47 1-76) (complex)” returned a Kd of 7830 nM. That is a single-digit micromolar value.
On to “K11/K63-triUb-(1,0) (triUb-NC(1,0)) (from UniProt P0CG47 1-75; P0CG47 1-76; P0CG47 1-76) (complex)”, for which the Kd in test [1] was determined as 430 nM; in test [2], 1040 nM; in test [3], 3360 nM.
Take “K63-diUb containing a native linkage (from UniProt P0CG47 1-76) (complex)”: the Kd in test [1] stood at 250 nM; in test [2] it was 2170 nM; in test [3], 4970 nM.
Regarding “K63/K48-triUb-(1,0) (triUb-NC(1,0)) (from UniProt P0CG47 1-75; P0CG47 1-76; P0CG47 1-76) (complex)”, the Kd in test [1] was 740 nM; in test [2] it was 2430 nM; in test [3] it was 2710 nM.
